For one substance, percent of transformed protoplasts with a YFP signal results are on record in publication PMC9754288.

For the experiment, the target named is SAP11_(CaPm) from 'Ca. P. mali' strain STAA, split-YFP fusion for BiFC ('Candidatus Phytoplasma mali' strain STAA). In words: split reporter (BiFC, NanoBiT); BiFC with split YFP from pBiFC-2in1 vectors in Nicotiana benthamiana mesophyll protoplasts; confocal microscopy 16 h after transformation; RFP marks transformed protoplasts.

“MdTCP16, split-YFP fusion for BiFC (natural protein)” showed a percent of transformed protoplasts with a YFP signal of less than 92.5%.
